These results are taken from doi:10.1101/2023.07.08.548221.

This test deals with strep-CsoS1A (hexameric shell protein CsoS1A) (Halothiobacillus neapolitanus) (UniProt P45689). Nature of the test: turbidity.
UniProt P45689, sequence (P45689 whole entry): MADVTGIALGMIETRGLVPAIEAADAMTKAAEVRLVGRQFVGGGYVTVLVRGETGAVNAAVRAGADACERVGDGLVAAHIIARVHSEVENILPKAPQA

Regarding “His-CsoS2B (full-length CsoS2, long form) (from UniProt O85041-1 1-869) (natural protein)”, the fold turbidity with CsoS1A against wtMR was 5 fold.
